First the molecules themselves.
B1: cyclic peptide SEQ ID NO: 34 (peptide)
peptide: CRALLRGAPFHLAEC
modifications: disulfide 1-15
notes: also called cyclic peptide reported in WO2000/003245A

The values below come from patent US20260008815A1, “CYCLIC PEPTIDE OR SALT THEREOF, AND USES THEREOF” (FUJIFILM Corporation, priority 2023, published 2026).

Numbered stars: 1 amine (or outer) side, 2 acyl side, 3 side chain; on linkers, the order of the positions; unused ones are H or OH. Bridge positions count the residues as written; N and C are the ends. Ends that are not written are not given here. acetyl = acetyl (haloacetyl before ring closure) on the side-chain amine, O=C(C[*:1])[*:2]; COCH2 = acetyl group that carries the bridge

For one test, the target named is T1, Recombinant Human FGFR2 alpha (IIIc) Fc Chimera Protein (Homo sapiens, UniProt P21802).
T1 construct: Fc (chimera); purchased R&D systems 712-FR-050
T1 sequence (P21802 with tags, fused parts or gaps limits assumed): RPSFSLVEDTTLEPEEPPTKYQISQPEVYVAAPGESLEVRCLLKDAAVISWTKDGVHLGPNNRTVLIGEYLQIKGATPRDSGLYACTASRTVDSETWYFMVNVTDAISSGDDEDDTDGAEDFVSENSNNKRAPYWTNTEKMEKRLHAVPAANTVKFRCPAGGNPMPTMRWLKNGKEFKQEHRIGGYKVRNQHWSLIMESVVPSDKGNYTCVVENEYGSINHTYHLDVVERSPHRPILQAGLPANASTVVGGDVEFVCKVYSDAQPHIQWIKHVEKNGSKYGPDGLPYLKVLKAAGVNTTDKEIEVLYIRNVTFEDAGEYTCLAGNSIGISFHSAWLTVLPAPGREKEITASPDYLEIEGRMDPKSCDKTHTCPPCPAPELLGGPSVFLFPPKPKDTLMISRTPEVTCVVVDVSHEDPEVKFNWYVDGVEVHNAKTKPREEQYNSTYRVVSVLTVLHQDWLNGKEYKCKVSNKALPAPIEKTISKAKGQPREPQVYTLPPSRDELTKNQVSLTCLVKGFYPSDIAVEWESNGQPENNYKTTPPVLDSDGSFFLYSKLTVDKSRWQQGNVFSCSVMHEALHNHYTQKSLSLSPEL
The test is described as follows: ELISA binding affinity of enzymatically synthesized peptide to FGFR. The note with it: ELISA luminescence signal at 10 nmol/L peptide, SEQ ID NO: 47 at 10 nmol/L standardized to 1; enzyme synthesis product. Here is the method:
The binding affinity of the peptide to FGFR was evaluated using an ELISA method.
The binding affinity of the enzymatically synthesized peptide to FGFR was measured by evaluating the amount of the peptide bound to FGFR by ELISA.
First, 5 ng of Recombinant Human FGFR2 alpha (IIIc) Fc Chimera Protein (R&D systems, 712-FR-050) was immobilized in each well of a 96-well plate, and blocked with Pierce Protein-Free (PBS) Blocking Buffer (Thermo, 37572), and a peptide diluted with Can Get Signal Immunoreaction Enhancer Solution I (TOYOBO, NKB-101) was then added and reacted at room temperature for 3 hours. After washing with 0.05% Tween 20-containing phosphate buffered saline (PBS), an anti-Myc antibody (Cell Signaling, 14038S) diluted with Can Get Signal Immunoreaction Enhancer Solution II (TOYOBO, NKB-101) was added and reacted at room temperature for 2 hours. After washing with 0.05% Tween 20-containing PBS, SuperSignal ELISA Femto Substrate (Thermo, 37075) was added, and the luminescence amount was measured. The dose-response relationship was calculated from using the difference between the luminescence amount in the well in which FGFR was immobilized and the luminescence amount in the well in which FGFR was not immobilized, and the concentration of the peptide at the time of reaction, and the binding affinity to FGFR was evaluated according to the following evaluation criteria. The evaluation result preferably satisfies the evaluation criteria A, B, or C.
In a case where a value of a luminescence signal emitted by the cyclic peptide set forth in SEQ ID NO: 47 at a reaction concentration of 10 nmol/L is standardized to 1, evaluation criteria of the luminescence signal value emitted by the cyclic peptide at a reaction concentration of 10 nmol/L is as follows. • A: 0.7 or more • B: 0.5 or more and less than 0.7 • C: 0.1 or more and less than 0.5 • D: less than 0.1.
A general note: An ELISA detects its analyte on a solid surface through an enzyme-linked reagent.
On to “34 (CRALLRGAPFHLAEC; disulfide 1-15) [compound 34]”, for which the “Evaluation result of binding affinity to FGFR” value (from here on “Evaluation result”) is on record as “D (less than 0.1)”.

“35 (YRSRKYSSWYVALKR; also: cyclic peptide, ring not given here) [compound 35]”: the “Evaluation result” value is “D (less than 0.1)”.

Consider “36 (CRALLRGAPFHLAEK(COCH2); thioether 1-15) [compound 36]”, for which the “Evaluation result” value is on record as “D (less than 0.1)”.

In the case of “37 (QCQLNYWDDLQFTYYLQYK(COCH2)V; thioether 2-19) [compound 37]”, the “Evaluation result” value is reported as “A (0.7 or more)”.

Turning to “38 (QCSYLYQYVFERYKVTVPK(COCH2)D; thioether 2-19 (inferred)) [compound 38]”, the “Evaluation result” value is recorded as “A (0.7 or more)”.

“39 (QCENWLSQDQWKYFWQYK(COCH2)I; thioether 2-18 (inferred)) [compound 39]”: the “Evaluation result” value is listed as “A (0.7 or more)”.

Take “40 (DCSGNFFSKEQFHYLELFK(COCH2)K; thioether 2-19 (inferred)) [compound 40]”: the “Evaluation result” value is “A (0.7 or more)”.

In the case of “41 (LCGNYITPLQWKYFQTYK(COCH2)W; thioether 2-18 (inferred)) [compound 41]”, the “Evaluation result” value is “A (0.7 or more)”.

As for “42 (QCYFLSQYILERYKVHK(COCH2)L; thioether 2-17 via acetyl) [compound 42]”, the “Evaluation result” value is “A (0.7 or more)”.

As for “43 (HCNANFVYQQQYLYLLQYK(COCH2)L; thioether 2-19 via acetyl) [compound 43]”, the “Evaluation result” value was “B (0.5 or more and less than 0.7)”.

“44 (ACEYNYWNQVQFTFLIAFK(COCH2)R; thioether 2-19 via acetyl) [compound 44]”: the “Evaluation result” value was “B (0.5 or more and less than 0.7)”.

For “45 (TCPQNFRDELQFTYFTQYKY; Description of Artificial Sequence: Cyclic peptide) [compound 45]”, the “Evaluation result” value is “A (0.7 or more)”.

In the case of “46 (SCIQQNYFWQYVFERYRYKQ; Description of Artificial Sequence: Cyclic peptide) [compound 46]”, the “Evaluation result” value is “B (0.5 or more and less than 0.7)”.

For the molecule “47 (KCPQNFINPVQWRYFQHYKN; not fully specified; Description of Artificial Sequence: Cyclic peptide) [compound 47]”, the “Evaluation result” value was “A (0.7 or more)”.

For the molecule “48 (GCYWNEVQYYYLQQYKQ; Description of Artificial Sequence: Cyclic peptide) [compound 48]”, the “Evaluation result” value is on record as “A (0.7 or more)”.

As for “49 (SCQGNWISNTQFRYFIAYK(COCH2)T; thioether 2-19; not fully specified (residue 1); printed as s-(C)-QGNWISNTQFRYFIAY-(K(acetyl))-T) [compound 49]”, the “Evaluation result” value is listed as “A (0.7 or more)”.

For “50 (ACGQNFYHPVQFHYFIAYKQ; Description of Artificial Sequence: Cyclic peptide) [compound 50]”, the “Evaluation result” value is “A (0.7 or more)”.

With “51 (VCHSNFLSAVQYAYFYQYKH; Description of Artificial Sequence: Cyclic peptide) [compound 51]”, the “Evaluation result” value is on record as “A (0.7 or more)”.

For the molecule “52 (VCNENNWSRSQYHFFLQYKY; Description of Artificial Sequence: Cyclic peptide) [compound 52]”, the “Evaluation result” value was “C (0.1 or more and less than 0.5)”.

Take “53 (ACPQNFINPVQWRYFQHYKN; not fully specified; Description of Artificial Sequence: Cyclic peptide) [compound 53]”: the “Evaluation result” value is “A (0.7 or more)”.

As to “54 (KCAQNFINPVQWRYFQHYKN; Description of Artificial Sequence: Cyclic peptide) [compound 54]”, the “Evaluation result” value is listed as “A (0.7 or more)”.

Regarding “55 (KCPANFINPVQWRYFQHYK(COCH2)N; thioether 2-19 (inferred)) [compound 55]”, the “Evaluation result” value is reported as “A (0.7 or more)”.

Take “56 (KCPQAFINPVQWRYFQHYK(COCH2)N; thioether 2-19 (inferred)) [compound 56]”: the “Evaluation result” value was “C (0.1 or more and less than 0.5)”.

With “57 (KCPQNAINPVQWRYFQHYK(COCH2)N; thioether 2-19 (inferred)) [compound 57]”, the “Evaluation result” value is “B (0.5 or more and less than 0.7)”.

As to “58 (KCPQNFANPVQWRYFQHYK(COCH2)N; thioether 2-19 (inferred)) [compound 58]”, the “Evaluation result” value was “B (0.5 or more and less than 0.7)”.

Consider “59 (KCPQNFIAPVQWRYFQHYK(COCH2)N; thioether 2-19 (inferred)) [compound 59]”, for which the “Evaluation result” value was “B (0.5 or more and less than 0.7)”.

With “60 (KCPQNFINAVQWRYFQHYK(COCH2)N; thioether 2-19 (inferred)) [compound 60]”, the “Evaluation result” value was “A (0.7 or more)”.

Take “61 (KCPQNFINPAQWRYFQHYK(COCH2)N; thioether 2-19 (inferred)) [compound 61]”: the “Evaluation result” value is “A (0.7 or more)”.

For the molecule “62 (KCPQNFINPVQARYFQHYK(COCH2)N; thioether 2-19 (inferred)) [compound 62]”, the “Evaluation result” value is “C (0.1 or more and less than 0.5)”.

With “63 (KCPQNFINPVQWAYFQHYK(COCH2)N; thioether 2-19 (inferred)) [compound 63]”, the “Evaluation result” value was “A (0.7 or more)”.

In the case of “64 (KCPQNFINPVQWRAFQHYK(COCH2)N; thioether 2-19 (inferred)) [compound 64]”, the “Evaluation result” value is “B (0.5 or more and less than 0.7)”.

Take “65 (KCPQNFINPVQWRYFAHYK(COCH2)N; thioether 2-19 (inferred)) [compound 65]”: the “Evaluation result” value is recorded as “A (0.7 or more)”.

Regarding “66 (KCPQNFINPVQWRYFQAYK(COCH2)N; thioether 2-19 (inferred)) [compound 66]”, the “Evaluation result” value is listed as “A (0.7 or more)”.

In the next test the target is T2, Recombinant Human FGFR2 alpha (IIIc) Fc Chimera Protein, CF (R&D systems, 712-FR-050) (human, UniProt P21802 22-377).
T2 construct: bought; not shown: Fc part of the chimera
T2 sequence (P21802 22-377, change not shown): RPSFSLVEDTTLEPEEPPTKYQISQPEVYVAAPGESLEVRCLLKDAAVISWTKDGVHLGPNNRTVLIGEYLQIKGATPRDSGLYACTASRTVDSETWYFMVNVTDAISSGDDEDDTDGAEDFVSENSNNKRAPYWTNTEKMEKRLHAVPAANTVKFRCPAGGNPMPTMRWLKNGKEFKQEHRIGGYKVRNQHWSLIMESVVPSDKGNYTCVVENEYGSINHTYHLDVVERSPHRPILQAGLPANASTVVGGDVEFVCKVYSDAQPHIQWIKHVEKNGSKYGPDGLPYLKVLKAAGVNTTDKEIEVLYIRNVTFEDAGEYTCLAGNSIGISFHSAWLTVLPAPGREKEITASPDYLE
In words: ELISA on plate-bound FGFR2-Fc.
Conditions: not given
Summed up: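 Plate-immobilized FGFR2 alpha (IIIc)-Fc (5 ng/well) incubated with peptide 3 h at room temperature, then anti-Myc antibody 2 h and chemiluminescent ELISA substrate. Signal corrected by subtracting FGFR-free wells; binding affinity scored into categories from the dose-response.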
As to ECPWNFVNQLQWQYFITYK(COCH2)V (thioether 2-19) [cyclic peptide SEQ ID NO: 129], the “ELISA luminescence signal at 10 nmol/L peptide, relative to SEQ ID NO: 47 (=1)” value was ≥ 0.7 ratio.

Turning to ECQENFVDRQQYWYFLSYK(COCH2)F (thioether 2-19) [cyclic peptide SEQ ID NO: 132], the “ELISA luminescence signal at 10 nmol/L peptide, relative to SEQ ID NO: 47 (=1)” value was ≥ 0.7 ratio.

Take YCPYNFYNIIQFHYFLTYK(COCH2)T (thioether 2-19) [cyclic peptide SEQ ID NO: 127]: the “ELISA luminescence signal at 10 nmol/L peptide, relative to SEQ ID NO: 47 (=1)” value is ≥ 0.7 ratio.

Regarding HCDGNWWNSQQFFYLLLYK(COCH2)H (thioether 2-19) [cyclic peptide SEQ ID NO: 130], the “ELISA luminescence signal at 10 nmol/L peptide, relative to SEQ ID NO: 47 (=1)” value was ≥ 0.7 ratio.

With YCRDNYFYLEQWQYLYLYK(COCH2)H (thioether 2-19) [cyclic peptide SEQ ID NO: 125], the “ELISA luminescence signal at 10 nmol/L peptide, relative to SEQ ID NO: 47 (=1)” value was ≥ 0.7 ratio.

Consider B1, for which the “ELISA luminescence signal at 10 nmol/L peptide, relative to SEQ ID NO: 47 (=1)” value is < 0.1 ratio.

Regarding CRALLRGAPFHLAEK(COCH2) (thioether 1-15) [cyclic peptide SEQ ID NO: 36], the “ELISA luminescence signal at 10 nmol/L peptide, relative to SEQ ID NO: 47 (=1)” value was < 0.1 ratio.

As to LCEINWLSQEQYGYFIEYK(COCH2)T (thioether 2-19) [cyclic peptide SEQ ID NO: 126], the “ELISA luminescence signal at 10 nmol/L peptide, relative to SEQ ID NO: 47 (=1)” value was ≥ 0.7 ratio.

With PCVQNYFNDLQWIFLQHYK(COCH2)R (thioether 2-19) [cyclic peptide SEQ ID NO: 128], the “ELISA luminescence signal at 10 nmol/L peptide, relative to SEQ ID NO: 47 (=1)” value is ≥ 0.7 ratio.

In the case of YRSRKYSSWYVALKR (not fully specified) [linear peptide SEQ ID NO: 35], the “ELISA luminescence signal at 10 nmol/L peptide, relative to SEQ ID NO: 47 (=1)” value is < 0.1 ratio.
